The values below come from patent publication US20230407373A1 (priority 2020, published 2023).

What all share (format): binding
The test system of assay [1] is SARS-CoV-2 gRNA. Conditions: for target (unweighted spectral count of the protein in the RNP capture): LC-MS/MS, Probe I sample (first 199 lines of Table 2).
In assay [2] the test system is SARS-CoV-2 gRNA and sgRNAs. Conditions: for background (unweighted spectral count in control): no-probe control pull-down, used as background for Probe II; for target (unweighted spectral count of the protein in the RNP capture experiment): LC-MS/MS label-free quantification, probe pool not given; for back-ground (unweighted spectral count of the protein in the control experiment): protein background of the control (e.g. no-probe) experiment; for target (unweighted spectral count in RNP capture): Probe II capture, LC-MS/MS LFQ.

The test system of assay [3] is HCoV-OC43 gRNA and sgRNA. Conditions: for target (unweighted spectral count): OC43 Probe II, infected cells; for target (unweighted spectral count, OC43 Probe II) / background (unweighted spectral count, no-probe control): type n_48_v, 48 hpi; for target (unweighted spectral count, OC43 Probe II): OC43 Probe II capture on infected cells; for background (unweighted spectral count, no-probe control): no-probe control on infected cells.

Assay [4] concerns gRNA of HCoV-OC43. Conditions: for target (spectral count, OC43 Probe I RNP capture) / background (spectral count, no-probe control): type n_48_v: 48 hours post-infection; for target (spectral count, OC43 Probe I RNP capture): infected cells, unweighted spectral count; for background (spectral count, no-probe control): no-probe control on infected cells.
[5] abbreviates: 12 hpi (type n_12_v), tested against no-probe control.
[6] abbreviates: 24 hpi (type n_24_v), tested against no-probe control.

Read-outs that look alike come from different tables or passages of the source.

B1: G3BP2: host protein of the core SARS-CoV-2 RNA interactome (protein, UniProt Q9UN86 2-482, looked up)
Ras GTPase-activating …: VMEKPSPLLVGREFVRQYYTLLNKAPEYLHRFYGRNSSYVHGGVDASGKPQEAVYGQNDIHHKVLSLNFSECHTKIRHVDAHATLSDGVVVQVMGLLSNSGQPERKFMQTFVLAPEGSVPNKFYVHNDMFRYEDEVFGDSEPELDEESEDEVEEEQEERQPSPEPVQENANSGYYEAHPVTNGIEEPLEESSHEPEPEPESETKTEELKPQVEEKNLEELEEKSTTPPPAEPVSLPQEPPKAFSWASVTSKNLPPSGTVSSSGIPPHVKAPVSQPRVEAKPEVQSQPPRVREQRPRERPGFPPRGPRPGRGDMEQNDSDNRRIIRYPDSHQLFVGNLPHDIDENELKEFFMSFGNVVELRINTKGVGGKLPNFGFVVFDDSEPVQRILIAKPIMFRGEVRLNVEEKKTRAARERETRGGGDDRRDIRRNDRGPGGPRGIVGGGMMRDRDGRGPPPRGGMAQKLGSGRGTGQMEGRFTGQRR
Take B1: in assay [1], the “enrichment in SARS-CoV-2 Probe I RNP capture” value is on record as “enriched”. Further, the “target (unweighted spectral count of the protein in the RNP capture)” value in assay [1] ([…]) was 25. In assay [2], the “enrichment in SARS-CoV-2 Probe II RNP capture” value is listed as “enriched” and the “background (unweighted spectral count in control)” value is 1.

B2: SRSF2 (protein, UniProt Q01130 2-221, looked up)
Serine/arginine-rich splicing …: SYGRPPPDVEGMTSLKVDNLTYRTSPDTLRRVFEKYGRVGDVYIPRDRYTKESRGFAFVRFHDKRDAEDAMDAMDGAVLDGRELRVQMARYGRPPDSHHSRRGPPPRRYGGGGYGRRSRSPRRRRRSRSRSRSRSRSRSRSRYSRSKSRSRTRSRSRSTSKSRSARRSKSKSSSVSRSRSRSRSRSRSRSPPPVSKRESKSRSRSKSPPKSPEEEGAVSS
Regarding B2, the “target (unweighted spectral count of the protein in the RNP capture)” value in assay [1] ([…]) is 12. Moreover, in assay [2], the “target (unweighted spectral count of the protein in the RNP capture experiment)” value stood at 11 and the “back-ground (unweighted spectral count of the protein in the control experiment)” value is listed as 2.

B3: DDX3Y (protein, UniProt O15523 2-660, looked up)
ATP-dependent RNA helicase …: SHVVVKNDPELDQQLANLDLNSEKQSGGASTASKGRYIPPHLRNREASKGFHDKDSSGWSCSKDKDAYSSFGSRDSRGKPGYFSERGSGSRGRFDDRGRSDYDGIGNRERPGFGRFERSGHSRWCDKSVEDDWSKPLPPSERLEQELFSGGNTGINFEKYDDIPVEATGSNCPPHIENFSDIDMGEIIMGNIELTRYTRPTPVQKHAIPIIKGKRDLMACAQTGSGKTAAFLLPILSQIYTDGPGEALKAVKENGRYGRRKQYPISLVLAPTRELAVQIYEEARKFSYRSRVRPCVVYGGADIGQQIRDLERGCHLLVATPGRLVDMMERGKIGLDFCKYLVLDEADRMLDMGFEPQIRRIVEQDTMPPKGVRHTMMFSATFPKEIQMLARDFLDEYIFLAVGRVGSTSENITQKVVWVEDLDKRSFLLDILGATGSDSLTLVFVETKKGADSLEDFLYHEGYACTSIHGDRSQRDREEALHQFRSGKSPILVATAVAARGLDISNVRHVINFDLPSDIEEYVHRIGRTGRVGNLGLATSFFNEKNMNITKDLLDLLVEAKQEVPSWLENMAYEHHYKGGSRGRSKSNRFSGGFGARDYRQSSGSSSSGFGASRGSSSRSGGGGYGNSRGFGGGGYGGFYNSDGYGGNYNSQGVDWWGN
In the case of B3, in assay [1] ([…]), the “target (unweighted spectral count of the protein in the RNP capture)” value turned out to be 8. In addition, in assay [2], the “target (unweighted spectral count in RNP capture)” value amounted to 27 and the “background (unweighted spectral count in control)” value is reported as 1.

B4: HNRNPUL1: host protein, UniProt Q9BU32 (protein, UniProt Q9BUJ2 1-856, looked up)
Heterogeneous nuclear …: MDVRRLKVNELREELQRRGLDTRGLKAELAERLQAALEAEEPDDERELDADDEPGRPGHINEEVETEGGSELEGTAQPPPPGLQPHAEPGGYSGPDGHYAMDNITRQNQFYDTQVIKQENESGYERRPLEMEQQQAYRPEMKTEMKQGAPTSFLPPEASQLKPDRQQFQSRKRPYEENRGRGYFEHREDRRGRSPQPPAEEDEDDFDDTLVAIDTYNCDLHFKVARDRSSGYPLTIEGFAYLWSGARASYGVRRGRVCFEMKINEEISVKHLPSTEPDPHVVRIGWSLDSCSTQLGEEPFSYGYGGTGKKSTNSRFENYGDKFAENDVIGCFADFECGNDVELSFTKNGKWMGIAFRIQKEALGGQALYPHVLVKNCAVEFNFGQRAEPYCSVLPGFTFIQHLPLSERIRGTVGPKSKAECEILMMVGLPAAGKTTWAIKHAASNPSKKYNILGTNAIMDKMRVMGLRRQRNYAGRWDVLIQQATQCLNRLIQIAARKKRNYILDQTNVYGSAQRRKMRPFEGFQRKAIVICPTDEDLKDRTIKRTDEEGKDVPDHAVLEMKANFTLPDVGDFLDEVLFIELQREEADKLVRQYNEEGRKAGPPPEKRFDNRGGGGFRGRGGGGGFQRYENRGPPGGNRGGFQNRGGGSGGGGNYRGGFNRSGGGGYSQNRWGNNNRDNNNSNNRGSYNRAPQQQPPPQQPPPPQPPPQQPPPPPSYSPARNPPGASTYNKNSNIPGSSANTSTPTVSSYSPPQPSYSQPPYNQGGYSQGYTAPPPPPPPPPAYNYGSYGGYNPAPYTPPPPPTAQTYPQPSYNQYQQYAQQWNQYYQNQGQWPPYYGNYDYGSYSGNTQGGTSTQ
Regarding B4, the “target (unweighted spectral count in RNP capture)” value in assay [1] (Probe I capture, […], LC-MS/MS LFQ) is given as 5. Moreover, the “background (unweighted spectral count in control)” value in assay [1] (no-probe control pull-down, used as background for Probe I) amounted to 1. Besides, the “target (unweighted spectral count)” value in assay [3] (setting [5]) is reported as 4. For the same molecule, in assay [3] (setting [6]), the “target (unweighted spectral count)” value was 8. For the same molecule, in assay [3], the “target (unweighted spectral count, OC43 Probe II)” value is given as 11 and the “background (unweighted spectral count, no-probe control)” value was 1. Besides, the “target (spectral count)” value in assay [4] (type g_36_m, HCoV-OC43-infected HCT-8 cells, 36 hpi, Probe I) was determined as 13. In addition, the “background (spectral count)” value in assay [4] (type g_36_m, uninfected-probe control, 36 hpi, Probe I) is given as 2. In addition, in assay [4], the “target (spectral count, OC43 Probe I RNP capture)” value worked out at 11 and the “background (spectral count, no-probe control)” value was 1.

B5: HNRNPD (protein, UniProt Q14103 2-355, looked up)
Heterogeneous nuclear …: SEEQFGGDGAAAAATAAVGGSAGEQEGAMVAATQGAAAAAGSGAGTGGGTASGGTEGGSAESEGAKIDASKNEEDEGHSNSSPRHSEAATAQREEWKMFIGGLSWDTTKKDLKDYFSKFGEVVDCTLKLDPITGRSRGFGFVLFKESESVDKVMDQKEHKLNGKVIDPKRAKAMKTKEPVKKIFVGGLSPDTPEEKIREYFGGFGEVESIELPMDNKTNKRRGFCFITFKEEEPVKKIMEKKYHNVGLSKCEIKVAMSKEQYQQQQQWGSRGGFAGRARGRGGGPSQNWNQGYSNYWNQGYGNYGYNSQGYGGYGGYDYTGYNNYYGYGDYSNQQSGYGKVSRRGGHQNSYKPY
As for B5, in assay [1] ([…]), the “target (unweighted spectral count of the protein in the RNP capture)” value is 37. In addition, the “target (unweighted spectral count)” value in assay [3] (setting [6]) came out at 17. In assay [3], the “target (unweighted spectral count, OC43 Probe II)” value is listed as 36 and the “background (unweighted spectral count, no-probe control)” value came out at 2. In addition, in assay [4], the “target (spectral count, OC43 Probe I RNP capture)” value was determined as 26 and the “background (spectral count, no-probe control)” value was found to be 2.

B6: PA2G4 (protein, UniProt Q9UQ80 2-394, looked up)
Proliferation-associated …: SGEDEQQEQTIAEDLVVTKYKMGGDIANRVLRSLVEASSSGVSVLSLCEKGDAMIMEETGKIFKKEKEMKKGIAFPTSISVNNCVCHFSPLKSDQDYILKEGDLVKIDLGVHVDGFIANVAHTFVVDVAQGTQVTGRKADVIKAAHLCAEAALRLVKPGNQNTQVTEAWNKVAHSFNCTPIEGMLSHQLKQHVIDGEKTIIQNPTDQQKKDHEKAEFEVHEVYAVDVLVSSGEGKAKDAGQRTTIYKRDPSKQYGLKMKTSRAFFSEVERRFDAMPFTLRAFEDEKKARMGVVECAKHELLQPFNVLYEKEGEFVAQFKFTVLLMPNGPMRITSGPFEPDLYKSEMEVQDAELKALLQSSASRKTQKKKKKKASKTAENATSGETLEENEAGD
With B6, the “target (unweighted spectral count of the protein in the RNP capture)” value in assay [1] ([…]) is listed as 7. In assay [2], the “target (unweighted spectral count of the protein in the RNP capture experiment)” value is 5 and the “back-ground (unweighted spectral count of the protein in the control experiment)” value stood at 1.

B7: HNRNPR (protein, UniProt O43390 2-633, looked up)
Heterogeneous nuclear …: ANQVNGNAVQLKEEEEPMDTSSVTHTEHYKTLIEAGLPQKVAERLDEIFQTGLVAYVDLDERAIDALREFNEEGALSVLQQFKESDLSHVQNKSAFLCGVMKTYRQREKQGSKVQESTKGPDEAKIKALLERTGYTLDVTTGQRKYGGPPPDSVYSGVQPGIGTEVFVGKIPRDLYEDELVPLFEKAGPIWDLRLMMDPLSGQNRGYAFITFCGKEAAQEAVKLCDSYEIRPGKHLGVCISVANNRLFVGSIPKNKTKENILEEFSKVTEGLVDVILYHQPDDKKKNRGFCFLEYEDHKSAAQARRRLMSGKVKVWGNVVTVEWADPVEEPDPEVMAKVKVLFVRNLATTVTEEILEKSFSEFGKLERVKKLKDYAFVHFEDRGAAVKAMDEMNGKEIEGEEIEIVLAKPPDKKRKERQAARQASRSTAYEDYYYHPPPRMPPPIRGRGRGGGRGGYGYPPDYYGYEDYYDDYYGYDYHDYRGGYEDPYYGYDDGYAVRGRGGGRGGRGAPPPPRGRGAPPPRGRAGYSQRGAPLGPPRGSRGGRGGPAQQQRGRGSRGSRGNRGGNVGGKRKADGYNQPDSKRRQTNNQQNWGSQPIAQQPLQQGGDYSGNYGYNNDNQEFYQDTYGQQWK
Take B7: the “target (unweighted spectral count of the protein in the RNP capture)” value in assay [1] ([…]) is reported as 32. Moreover, the “target (unweighted spectral count, OC43 Probe II capture)” value in assay [3] (36 hpi, type n_36_v, tested against no-probe control, FDR<10%) is given as 52. The “target (unweighted spectral count)” value in assay [3] (setting [5]) amounted to 13. In addition, the “target (unweighted spectral count)” value in assay [3] (setting [6]) was found to be 24. Also, in assay [3], the “target (unweighted spectral count, OC43 Probe II)” value amounted to 76 and the “background (unweighted spectral count, no-probe control)” value was 4. Also, in assay [4], the “target (spectral count, OC43 Probe I RNP capture)” value is recorded as 63 and the “background (spectral count, no-probe control)” value was determined as 4.

B8: RBMS1 (protein, UniProt P29558 1-406, looked up)
RNA-binding motif, …: MGKVWKQQMYPQYATYYYPQYLQAKQSLVPAHPMAPPSPSTTSSNNNSSSSSNSGWDQLSKTNLYIRGLPPHTTDQDLVKLCQPYGKIVSTKAILDKTTNKCKGYGFVDFDSPAAAQKAVSALKASGVQAQMAKQQEQDPTNLYISNLPLSMDEQELENMLKPFGQVISTRILRDSSGTSRGVGFARMESTEKCEAVIGHFNGKFIKTPPGVSAPTEPLLCKFADGGQKKRQNPNKYIPNGRPWHREGEVRLAGMTLTYDPTTAAIQNGFYPSPYSIATNRMITQTSITPYIASPVSAYQVQSPSWMQPQPYILQHPGAVLTPSMEHTMSLQPASMISPLAQQMSHLSLGSTGTYMPATSAMQGAYLPQYAHMQTTAVPVEEASGQQQVAVETSNDHSPYTFQPNK
On to B8, for which the “target (unweighted spectral count of the protein in the RNP capture)” value in assay [1] ([…]) is reported as 11. Besides, in assay [2], the “target (unweighted spectral count in RNP capture)” value is listed as 15 and the “background (unweighted spectral count in control)” value is 1.
